{"source": "paper PMC10496494", "about": "(2023)", "binders": {"B1": {"name": "DDX24^WT (human wildtype DDX24, residues 28 to 859), purified recombinant (domain or fragment)", "chain": "KWKEVKIDPNMFADGQMDDLVCFEELTDYQLVSPAKNPSSLFSKEAPKRKAQAVSEEEEEEEGKSSSPKKKIKLKKSKNVATEGTSTQKEFEVKDPELEAQGDDMVCDDPEAGEMTSENLVQTAPKKKKNKGKKGLEPSQSTAAKVPKKAKTWIPEVHDQKADVSAWKDLFVPRPVLRALSFLGFSAPTPIQALTLAPAIRDKLDILGAAETGSGKTLAFAIPMIHAVLQWQKRNAAPPPSNTEAPPGETRTEAGAETRSPGKAEAESDALPDDTVIESEALPSDIAAEARAKTGGTVSDQALLFGDDDAGEGPSSLIREKPVPKQNENEEENLDKEQTGNLKQELDDKSATCKAYPKRPLLGLVLTPTRELAVQVKQHIDAVARFTGIKTAILVGGMSTQKQQRMLNRRPEIVVATPGRLWELIKEKHYHLRNLRQLRCLVVDEADRMVEKGHFAELSQLLEMLNDSQYNPKRQTLVFSATLTLVHQAPARILHKKHTKKMDKTAKLDLLMQKIGMRGKPKVIDLTRNEATVETLTETKIHCETDEKDFYLYYFLMQYPGRSLVFANSISCIKRLSGLLKVLDIMPLTLHACMHQKQRLRNLEQFARLEDCVLLATDVAARGLDIPKVQHVIHYQVPRTSEIYVHRSGRTARATNEGLSLMLIGPEDVINFKKIYKTLKKDEDIPLFPVQTKYMDVVKERIRLARQIEKSEYRNFQACLHNSWIEQAAAALEIELEEDMYKGGKADQQEERRRQKQMKVLKKELRHLLSQPLFTESQKTKYPTQSGKPPLLVSAPSKSESALSCLSKQKKKKTKKPKEPQPEQPQPSTSAN"}}, "biological_target": "NPM1 (human wildtype nucleophosmin, residues 1 to 290), purified recombinant (human, UniProt P06748 1-290)", "sequence (P06748 1-290)": "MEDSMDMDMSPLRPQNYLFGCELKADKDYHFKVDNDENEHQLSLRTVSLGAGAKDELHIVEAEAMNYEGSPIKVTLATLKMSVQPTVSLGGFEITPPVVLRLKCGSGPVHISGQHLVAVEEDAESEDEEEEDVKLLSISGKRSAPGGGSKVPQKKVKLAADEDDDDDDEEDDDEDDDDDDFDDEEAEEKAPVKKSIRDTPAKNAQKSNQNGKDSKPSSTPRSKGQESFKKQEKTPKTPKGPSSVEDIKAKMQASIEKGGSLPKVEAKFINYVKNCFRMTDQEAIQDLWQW", "assay": "SPR; NPM1 immobilised, DDX24^WT as analyte", "data": [{"binder": "B1", "values": [{"measurement": "Kd", "value": 2.4, "unit": "nM"}]}]}
